The text below walks through data of the nanobody polyreactivity screen of Harvey et al. (2022).

The nature of the data set: yeast display, Sf9 membrane polyspecificity reagent, FACS + sequencing; frameworks hold sequencing errors. In a few lines: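 A synthetic nanobody library was expressed on Saccharomyces cerevisiae BJ5465 by galactose induction for 36–48 hours. The library was stained for 1 hour at 4 °C with 10% biotinylated, detergent-solubilized Sf9 membrane reagent and enriched with streptavidin microbeads before FACS. Low and high (top ~1%) gates were set on anti-HA fluorescence for expression and streptavidin fluorescence for reagent binding, and each polyreactivity label reflects the gate of origin.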
As for “QVQLVESGGGLVQAGGSLRLSCAASGSTFAGYAMGWYRQAPGKERELVATITYSGGTTYYADSVKGRFTISRDTAKNTVFLQMKSLKPEDTAVYYCDNKASYWWGFEYWGQGTQVTVSS”, the “polyreactivity (PSR sort gate)” value was “low polyreactivity”.

As for “QVQLVESGGGLVQAGGSLRLSCAASGSTFAGYAMGWYRQEPGKERELVAAISGSGGTTYYADSVKGRFTISRDNAKNTVYLQMNSLKPEDNAVYYCAALRGRYYGGLGDYWGQGTQVTVSS”, the “polyreactivity (PSR sort gate)” value was “high polyreactivity”.

With “QVQLVESGGGLVQAGGSLRLSCAASGSTFAGYAMGWYRQPPGKERELVAAISYSGGTTYYADSVKGRFTISRDNAKNTVYLQMNSLKPEDTAVYYCAARKKFKTPSYDMYYWGQGTQVTVSS”, the “polyreactivity (PSR sort gate)” value is listed as “high polyreactivity”.

As for “QVQLVESGGGLVQAGGSLRLSCAASGSTFAINAMGWYRQAPGTERELVAAIRYSTGRTYYADSVKGRFTISRDNAKNTVYLQMNSLKPEDTAVYYCAALGFTKYGSRFDYWGQGTQVTVSS”, the “polyreactivity (PSR sort gate)” value is on record as “high polyreactivity”.

“QVQLVESGGGLVQAGGSLRLSCAASGSTFAIYAMGWYRQAPAKERELVAAITRGSTSYADSVKGRFTISRDNAKNTVYLQMNSLKPEDTAVYDCAADSSRYGVIRDFDYWGQGTQVTVSS”: the “polyreactivity (PSR sort gate)” value was “high polyreactivity”.

Regarding “QVQLVESGGGLVQAGGSLRLSCAASGSTFAIYAMGWYRQAPGKERELVAAITGRSGSTYYADSVKGRFTISRDNAKNTVYLQMNSLKPEDTAVYYCAAQGGYRRTPYIHRDYWGQGTQVTVSS”, the “polyreactivity (PSR sort gate)” value was “high polyreactivity”.

On to “QVQLVESGGGLVQAGGSLRLSCAASGSTFAIYAMGWYRQAPGKERELVAAITRGSTSYADSVKGRFTISRDNAKNTVYLQMNCLKPEDTAVYYCAAEYFLAQVYIYGYWGQGTQVTVSS”, for which the “polyreactivity (PSR sort gate)” value is “high polyreactivity”.

With “QVQLVESGGGLVQAGGSLRLSCAASGSTFAIYGMGWYRQAPGKERELVAGITRGGSTNYADSVKGRFTISRDNAKNTVYLQMNSLKPEDTAVYYCNKVQRSTYYNGYDYWGQGTQVTVSS”, the “polyreactivity (PSR sort gate)” value is “high polyreactivity”.

As to “QVQLVESGGGLVQAGGSLRLSCAASGSTFAKYAMGWYRQAPGKERELVASIRLSGGSTYYADSVKGRFTISRDNAKNTVYLQMNSLKPEETAVYYCNKQFATFYYCFDYYYWGQGTQVTVSS”, the “polyreactivity (PSR sort gate)” value is reported as “low polyreactivity”.

Consider “QVQLVESGGGLVQAGGSLRLSCAASGSTFAKYVMGWYRQAPGKERELVAAISRRGSSTYYADSVKGRFTISRDNAKNTVYLQMNSLKPEDTAVYYCAARFRYSGFEGMDYWGQGTQVTVSS”, for which the “polyreactivity (PSR sort gate)” value is reported as “high polyreactivity”.

With “QVQLVESGGGLVQAGGSLRLSCAASGSTFALYAMGWYRQAPGKERELVAAITRGDRTYYADSVKGRFTISRDNAKNTVYLQMNSLKAEDSAVYYCAAGYFGLWVRYDYWGQGSQVTVSS”, the “polyreactivity (PSR sort gate)” value is “low polyreactivity”.

With “QVQLVESGGGLVQAGGSLRLSCAASGSTFALYAMGWYRQAPGKERELVAVITSGGSTYYADSVKGRFTISRDNAKNTVYLQMNSLKPEDTAVYYCAARRHVRKGPLGYWGQGTQVTLSS”, the “polyreactivity (PSR sort gate)” value is listed as “high polyreactivity”.

Turning to “QVQLVESGGGLVQAGGSLRLSCAASGSTFAPNAMGWYRQAPGKERELVAGISWGDSTYYADSVKGRFTISRDNAKNTVYLQMNSLKPEDTAVYYCNVDDPFYSGVVEFDYWGQGTQVTVSS”, the “polyreactivity (PSR sort gate)” value is on record as “low polyreactivity”.

Take “QVQLVESGGGLVQAGGSLRLSCAASGSTFAPNTMGWYRQAPGKERELVAGITDGTITTYADSVKGRFTISRDNAKNTVYLQMNSLKPEDTAVYYCATRQSWYPRWMDYWGQGTQVTVSS”: the “polyreactivity (PSR sort gate)” value is “high polyreactivity”.

Consider “QVQLVESGGGLVQAGGSLRLSCAASGSTFAPYAMGWYRQAPGKETELVARITGSGGGTTYADSVKGRFTISRDNAKNTVYLQMNSLKPEDTAVYYCAAPRASQYGDDYWGQGTQVTVSS”, for which the “polyreactivity (PSR sort gate)” value is “high polyreactivity”.

For the sequence “QVQLVESGGGLVQAGGSLRLSCAASGSTFAQYAMGWYRQAPGKERELVAAISRGGGSTYYADSVKGRFTISRDNAKNTVYLQMNSLKPEDTAVYYCNARTSHYDKYGYWGQGTQVTVSS”, the “polyreactivity (PSR sort gate)” value is reported as “high polyreactivity”.

Regarding “QVQLVESGGGLVQAGGSLRLSCAASGSTFARNAMGWFRQAPGKEREFVASIRWGRGTTYYADSVKGRFTNSRDNAKNTLYLQLNSMIPEDSAVYYCATRNSSKRRGYYYWGQGTQVNVSS”, the “polyreactivity (PSR sort gate)” value is listed as “high polyreactivity”.

For “QVQLVESGGGLVQAGGSLRLSCAASGSTFARNAMGWYRQAPGKERELVAAISSGGTTNYADSVKGRFTISRDNAKNTVYLQMNSLKPEDTAVYYCNAGFRNVLTSGYLYDYWGQGTQVTVSS”, the “polyreactivity (PSR sort gate)” value is recorded as “low polyreactivity”.

Regarding “QVQLVESGGGLVQAGGSLRLSCAASGSTFASNAMGWYRQAPGKARELVAGISSSDGGTYYADSVKGRFTISRDIAKYNVYLEMKSLKPEDTAVYSCNAPPGTFQWQGHSDYWGQGTEVTVSS”, the “polyreactivity (PSR sort gate)” value is “low polyreactivity”.

With “QVQLVESGGGLVQAGGSLRLSCAASGSTFASNVMGWYRQAPGKERELVAAITRGDRTHYADSVKGRFTISRDNAKNTVYLQMNSLKPEDTAVYYCAARFIFWVYDYDYWGQGSQVTVSS”, the “polyreactivity (PSR sort gate)” value is “low polyreactivity”.

As to “QVQLVESGGGLVQAGGSLRLSCAASGSTFASYAMGWYRQAPGKERELVAAIRWRGGTTYYADSVKGRFTISRDNAKNTVYLQMNSLKPDDTAVYYCNADRYYLYYYWGQGTQVTVSS”, the “polyreactivity (PSR sort gate)” value is on record as “low polyreactivity”.

Take “QVQLVESGGGLVQAGGSLRLSCAASGSTFATYAMGWYRPAPGKERELVAAITRGGRTNYADSVKGRFTISRDNAKNTVYLQMNSLKPEDTSVYYCAADYIYGYFWRFGYWGQGTQVTVSS”: the “polyreactivity (PSR sort gate)” value is recorded as “low polyreactivity”.

With “QVQLVESGGGLVQAGGSLRLSCAASGSTFATYAMGWYRQAPGKERELVAVITRGGRTYYADSVKGRFTISRDNAKNTVYLQMNSLKPEDTAVYYCAAKAYTYYARIGFDYWGQGTQVTVSS”, the “polyreactivity (PSR sort gate)” value is listed as “high polyreactivity”.

On to “QVQLVESGGGLVQAGGSLRLSCAASGSTFAVNAMGWYRQAPGKERELVAAISGSGGRTYYADSVKGRFTISRDNAKNTVYLQMNSLKPEETAFYYCATELRAPYRSSGAYHYDYWGQGTQVTVSS”, for which the “polyreactivity (PSR sort gate)” value is “low polyreactivity”.

As to “QVQLVESGGGLVQAGGSLRLSCAASGSTFAYNAMGWYIQAPGKERELVAAISTSGGSTNYADSVKGRFTISRDMSKNTVYLQMNSLKPEVTAVYFCAARPKTPSITRYGYWGQGTHVTVSS”, the “polyreactivity (PSR sort gate)” value was “high polyreactivity”.

Regarding “QVQLVESGGGLVQAGGSLRLSCAASGSTFAYNAMGWYRQAPGKERELVARISSSGDITYYADSVKGRFTISRDNAKNTVYLQMNCLKPEDTAVYYCAKRYLTRYKGYYYWGQGTQVTVSS”, the “polyreactivity (PSR sort gate)” value is reported as “high polyreactivity”.

Take “QVQLVESGGGLVQAGGSLRLSCAASGSTFAYNDMGWYRQAQGKERELVADIRSGGNTYADSVKGRFTISRDNAKNTVYLQMNSLKPVDTAVYYCAVDGGEFSSYGYWGQGTQLTVSS”: the “polyreactivity (PSR sort gate)” value was “low polyreactivity”.

Consider “QVQLVESGGGLVQAGGSLRLSCAASGSTFAYNTMGWYRQAPGKERELVAAISQRGGSTYADSVKGRFTISRDNAKNTVYLQMNSLKPEETAVYYCAAVGYTYKFDYWGQGTQVTVSS”, for which the “polyreactivity (PSR sort gate)” value is reported as “low polyreactivity”.

“QVQLVESGGGLVQAGGSLRLSCAASGSTFAYYAMGWYRQAPGKERELVAAISRTGGSTYYADSVKGRFTISRDNAKNTVYLQMNSLKPEDTAVYYCNARAPVGTFDYDYWGQGTQVTVSS”: the “polyreactivity (PSR sort gate)” value is “low polyreactivity”.

“QVQLVESGGGLVQAGGSLRLSCAASGSTFAYYAMGWYRQAPGKERELVAAISSGGSTYYADSVKGRFTISRDNAKNTVYLQMNSLKPEDTAVYYCNKLWVGKFKRYEFGYWGQGTQVTVSS”: the “polyreactivity (PSR sort gate)” value was “low polyreactivity”.

On to “QVQLVESGGGLVQAGGSLRLSCAASGSTFAYYAMGWYRQAPGKERELVAAITWSGGSTSYADSVKGRFTISRDNAKNTVYLQMNSLKPEDTGVYYCNADDKPLDWREYNYWGQGTQVTVSS”, for which the “polyreactivity (PSR sort gate)” value is “low polyreactivity”.

“QVQLVESGGGLVQAGGSLRLSCAASGSTFAYYAMGWYSPAPGKERELVAAISSSGGRTYYADSVKGRFTISRDNAKNTVYLQMYSLKPEDTAVYYCAARSPYYSASVRYDYWGQGTQVTVSS”: the “polyreactivity (PSR sort gate)” value is given as “high polyreactivity”.

For the sequence “QVQLVESGGGLVQAGGSLRLSCAASGSTFAYYTMGWYRQAPGKERELVAAITWSGGRTFYADSVKGRFTISRDNAKNTVYLQMNSLKPEDTAVYYCNTDDSHRPPRTPDDYNYWGQGTQVTVSS”, the “polyreactivity (PSR sort gate)” value was “high polyreactivity”.

As for “QVQLVESGGGLVQAGGSLRLSCAASGSTFAYYVMGWYRQAPGTERELVAAITSSGGRTYYADSVKGRFTISRDNAKNTVYLQMNSLKPEDTAVYYCAKVSQRGVDNSDYDYWGQGTQVTVSS”, the “polyreactivity (PSR sort gate)” value is “high polyreactivity”.

Consider “QVQLVESGGGLVQAGGSLRLSCAASGSTFCFNAMGWSRQAPGKEREMVAAIPSRGGSTYYADSVKGRFTSSRDNAKKTVYLQMKSLKPEDTAVYYCASDYFGFSYAGYNYWGQGTQVTVSS”, for which the “polyreactivity (PSR sort gate)” value is “low polyreactivity”.

On to “QVQLVESGGGLVQAGGSLRLSCAASGSTFDANTMGWYRQAPGKERELVAAISSNGGRTYYADSVKGRFTISRDNAKNTVYLLMNSLKPEDTAVYYCAASSYYRYRETYDYWGLGTQVTVSS”, for which the “polyreactivity (PSR sort gate)” value is “high polyreactivity”.

Turning to “QVQLVESGGGLVQAGGSLRLSCAASGSTFDAYAMGWYRQAPGKERELVAAITNAGSTNYADSVKGRFTISRDNAKNTVYLQMNSLKPEDTAVFYCAADVSRWLDYGYDYWGQGTQVTVSS”, the “polyreactivity (PSR sort gate)” value is “low polyreactivity”.

Turning to “QVQLVESGGGLVQAGGSLRLSCAASGSTFDDNALGWYRQAPGKERELVAAISSRGSTYYADSVKGLFTISRDNAKNTVYLQMNSLKPEDTAVYYCAKRTYRYYGLNAYYYWGQGTQVTVSS”, the “polyreactivity (PSR sort gate)” value is “high polyreactivity”.

With “QVQLVESGGGLVQAGGSLRLSCAASGSTFDDNAMGWYRQAPGKERELVASINYSTGSTYYADSVKGRFTISRDNAKNTVYLQMNSLKPEDTAVYYCAKDLRRYLSWWYRYPYDYWGQGTQVTVSS”, the “polyreactivity (PSR sort gate)” value is listed as “low polyreactivity”.

For “QVQLVESGGGLVQAGGSLRLSCAASGSTFDDNAMGWYRQAPGKERELVASITYRGGSTYYADSVKGRFTISRDNAKNTVYLQMNSLKPEDTAVYYCAKGHYFKYDYWGQGTQVTVSS”, the “polyreactivity (PSR sort gate)” value was “low polyreactivity”.

“QVQLVESGGGLVQAGGSLRLSCAASGSTFDDYAMGWYRQAPGKERELVAAISYSGGSTYYADSVKGRFTISRDNAKNTVYLQMNSLKPEDTAVYYCAADDLYTDYETWWRRGDYCGQGTQVTVSS”: the “polyreactivity (PSR sort gate)” value is recorded as “low polyreactivity”.
